Data published in paper doi:10.1101/292912 (bioRxiv, 2018).

Biological target: the molecule itself
Assay: dynamic light scattering

B1: Δ68-269 SaMGT (transmembrane domain-less monoglycosyltransferase from S. aureus) (domain or fragment)
chain: DNVDELRKIENKSSFVSADNMPEYVKGAFISMEDERFYNHHGFDLKGTTRALFSTISDRDVQGGSTITQQVVKNYFYDNDRSFTRKVKELFVAHRVEKQYNKNEILSFYLNNIYFGDNQYTLEGAANHYFGTTVNKNSTTMSHITVLQSAILASKVNAPSVYNINNMSENFTQRVSTNLEKMKQQNYINETQYQQAMSQLNR
binding result: binds
